Results on three molecules are retold here after patent US20230132604A1 (KEYMED BIOSCIENCES, published 2023).

Assay [1] addresses T1, recombinant human CD38 extracellular region protein (Val 43-Ile 300) with N-terminal 6×his tag (human, UniProt P28907 43-300).
T1 construct: range 43-300; Expressed in HEK293.6E cells and purified on a nickel chelate column; also called human CD38 recombinant protein; human CD38 protein
T1 sequence: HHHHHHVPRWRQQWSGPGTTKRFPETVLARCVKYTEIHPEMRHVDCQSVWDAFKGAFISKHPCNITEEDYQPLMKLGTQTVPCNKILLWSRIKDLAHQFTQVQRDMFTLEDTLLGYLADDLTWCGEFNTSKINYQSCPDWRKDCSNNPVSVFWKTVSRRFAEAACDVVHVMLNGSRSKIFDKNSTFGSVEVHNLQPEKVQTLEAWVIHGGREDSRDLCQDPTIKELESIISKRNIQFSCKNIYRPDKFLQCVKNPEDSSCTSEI
The experiment in a line: ELISA, plate coated with human CD38 protein, detection with HRP goat anti-human IgG Fc, OD450. In general terms: ELISA stands for enzyme-linked immunosorbent assay.

The target of assay [2] is T2, human CD38 expressed on tumor cells (Daudi, NALM-6, Ramos.2G6.4C10, TALL-1) (human, UniProt P28907 1-300).
T2 construct: whole, on cells; Endogenous CD38 on human tumor cell lines; also called CD38 molecules expressed on Daudi; CD38 on Daudi cells
T2 sequence (looked up): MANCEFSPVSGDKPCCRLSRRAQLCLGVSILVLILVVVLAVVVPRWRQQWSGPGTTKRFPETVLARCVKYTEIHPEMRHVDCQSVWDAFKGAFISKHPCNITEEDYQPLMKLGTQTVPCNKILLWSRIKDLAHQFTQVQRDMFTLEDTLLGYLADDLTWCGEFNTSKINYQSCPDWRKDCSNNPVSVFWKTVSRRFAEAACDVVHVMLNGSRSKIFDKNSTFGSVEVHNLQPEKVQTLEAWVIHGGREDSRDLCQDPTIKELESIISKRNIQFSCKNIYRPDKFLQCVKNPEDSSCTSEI
The experiment in a line: flow cytometry (FACS) on Daudi cells. How it is done: (§1) Different cells in logarithmic phase were blocked with 3% BSA for 30 minutes, and then plated into a U-shaped 96-well plate at 5×10⁴ cells/100 μL; centrifugation was conducted at 1100 rpm for 3 minutes, the supernatant was discarded, the cells were patted and loosed gently, 50 μL of serially diluted antibody (diluted 3-fold in 5 series, with an initial concentration of 30 μg/mL) was added to each well, and the mixture was incubated at 4° C. for 1 hour. After the incubation, 180 μL 0.5% BSA was added to each well, wash 3 times, 30 μL/well of secondary antibody Alexa Fluro 647 anti-human IgG (Jackson ImmunoResearch, Cat: 109-606-170) was added, and the mixture was incubated at 4° C. for 45 minutes. After the incubation, each well was washed 3 times with 180 μL 0.5% BSA, and finally resuspended in 50 μL PBS each well for iQue (Intellicyt, USA) assay.
Background: Flow cytometry measures light scatter and fluorescence of single cells or particles in a stream.

Assay [3] deals with T2, human CD38 expressed on tumor cells …. Nature of the assay: flow cytometry (FACS) on NALM-6 cells. How it is done:
as §1

Assay [4] shares this target. Nature of the assay: flow cytometry (FACS) on TALL-1 cells. How it is done: as §1
The target is the same in assay [5]. The experiment in a line: flow cytometry (FACS) on Ramos.2G6.4C10 cells. How it is done:
as §1

The target of assay [6] is T1, recombinant human CD38 extracellular …. The experiment in a line: ELISA, plate coated with human CD38 protein, anti-human IgG Fc-HRP detection. How it is done:
A 96-well plate was coated with human CD38 protein and incubated overnight at 4° C. The solution in wells were then discarded, washed 3 times with wash buffer, and blocked by the addition of 2% milk in PBS for 60 minutes. After washing 3 times with washing buffer, 100 μL of antibodies at different dilutions were added to each well, and the mixture was incubated at 37° C. for 1 hour; after washing 3 times with washing buffer, HPR-labeled goat anti-human IgG Fc was diluted at 1:5000 with 0.5% BSA, and the mixture was incubated at room temperature for 1 hour; after washing 3 times with washing buffer, 100 μL of TMB substrate solution was added for color development; after reaction at 37° C. for 10 minutes, the reaction was terminated with 50 μL of 2M sulfuric acid solution and the absorbance was read at 450 nm.

For assay [7] the target is unchanged. The experiment in a line: SPR (Biacore), antibody captured on protein A chip, human CD38 recombinant protein as analyte, Langmuir 1:1 fit. For orientation: In SPR one partner is held on a chip, and binding of the other changes the refractive index at the surface.

B1: chimeric anti-human CD38 antibody 48H1-B11 (antibody, V domains shown)
VH: EVQLKQSGPGLMQPSQSLSITCTVSGFSLTSYGIHWLRQSPGKGLEWLGVIWRGGSTDYNAAFMSRLSITKDNSKSQVFFKMNSLQGDDTAIYYCAKGKVTTGFYFDFWGQGTTLTVSS
VL: DIQMTQSSSSFSVSLGDRVTITCKASEDIYNRLVWYQQKPGNAPGLLISGVTSLETGVPSRFSGSGSGKDYTLTITSLQTEDVATYYCQQYWSTPYTFGGGTKLEIK
notes: also called chimeric antibody 48H1-B11; mAb48H1-B11 (murine parent)
For B1, the EC50 (read off the curve) (in general, the concentration needed to bring the measured effect to its halfway point) in assay [1] is about 100 pM.

B2: humanized CD38 antibody Ab031 (h48H1-VHv7 / h48H1-VKv7) (antibody, V domains shown)
VH: QVQLQESGPGLVKPSETLSLTCTVSGFSLTSYGIHWIRQPPGKGLEWIGVIWRGGSTDYNPSLKSRVTISKDNSKSQVSLKLSSVTAADTAVYYCAKGKVTTGFYFDFWGQGTLVTVSS
VL: EIVMTQSPPTLSLSPGERVTLSCRASEDIYNRLVWYQQKPGQAPRLLISGVTSLETSIPARFSGSGSGTDYTLTISSLQPEDFAVYYCQQYWSTPYTFGQGTKVEIK
notes: also called CM313-1
In the case of B2, the EC50 – broadly, the concentration giving half of the maximal effect – in assay [2] stood at 440 pM; in assay [3], 370 pM; in assay [4], 410 pM; in assay [5], 420 pM; in assay [6], 510 pM. For the same molecule, the Kd (as a rule, the concentration at which binding is half-saturated) in assay [7] was determined as 278 pM. Moreover, the koff (usually the rate constant with which the complex falls apart) in assay [7] is 0.000556 s⁻¹. For the same molecule, the kon (in general, a measure of how fast the partners come together) in assay [7] was 2e+06 M⁻¹ s⁻¹.

B3: humanized CD38 antibody Ab033 (h48H1-VHv8 / h48H1-VKv7) (antibody, V domains shown)
VH: QVQLQESGPGLVKPSETLSLTCTVSGFSLTSYGIHWLRQPPGKGLEWIGVIWRGGSTDYNPSLKSRVTISKDTSKSQVSLKLSSVTAADTAVYYCAKGKVTTGFYFDFWGQGTLVTVSS
VL: EIVMTQSPPTLSLSPGERVTLSCRASEDIYNRLVWYQQKPGQAPRLLISGVTSLETSIPARFSGSGSGTDYTLTISSLQPEDFAVYYCQQYWSTPYTFGQGTKVEIK
notes: also called CM313-2
On to B3, for which the concentration giving a half-maximal response (EC50) worked out at 540 pM in assay [2]; 490 pM in assay [3]; 340 pM in assay [4]; 580 pM in assay [5]; 4240 pM in assay [6]. Moreover, in assay [7], the Kd was found to be 1430 pM. Also, in assay [7], the dissociation rate constant (koff) stood at 0.00532 s⁻¹. Besides, in assay [7], the kon came out at 3.71e+06 M⁻¹ s⁻¹.
